Experimental data taken from the DeepSol protein solubility set.

Experiment: soluble on expression in E. coli; label from the status in PepcDB or PDB records
For “MAKKTSSKGKLPPGPRPLPLLGNLLQMDRRGLLKSFLRFREKYGDVFTVHLGPRPVVMLCGVEAIREALVDKAEAFSGRGKIAMVDPFFRGYGVIFANGNRWKVLRRFSVTTMRDFGMGKRSVEERIQEEAQCLIEELRKSKGALMDPTFLFQSITANIICSIVFGKRFHYQDQEFLKMLNLFYQTFSLISSVFGQLFELFSGFLKHFPGAHRQVYKNLQEINAYIGHSVEKHRETLDPSAPRDLIDTYLLHMEKEKSNAHSEFSHQNLNLNTLSLFFAGTETTSTTLRYGFLLMLKYPHVAERVYREIEQVIGPHRPPELHDRAKMPYTEAVIYEIQRFSDLLPMGVPHIVTQHTSFRGYIIPKDTEVFLILSTALHDPHYFEKPDAFNPDHFLDANGALKKTEAFIPFSLGKRICLGEGIARAELFLFFTTILQNFSMASPVAPEDIDLTPQECGVGKIPPTYQIRFLPRHHHH”, the “soluble on expression in E. coli” value was “soluble”.
For “LPKVSEDHLAARRSQILDGARRCFAEYGYDGATVRRLEEVTGLSRGAIFHHFKDKDGLFLALAHEDATRMADVVAHEGLVQVMRDMLAQPEQFDWLGTRLEIARRLRNDPDFRRSWSQRSAELTEATMARLARQKSAGRLRDDVPTDVLIGYLDLVLDGLVARIASGHAGDNLSAVLDLVEESVRRRD”, the “soluble on expression in E. coli” value was “not soluble”.
For “MGKNKTAYVCQECGYKSVKWLGKCPSCGEWNTLVEEFEPQSFSLVKKEPSLVLPVTDWEKEEHERETTGFESLDNALGGGLVKGQVILIAGEPGIGKSTLLLQISDRVANGKKVLYVSGEESGTQIALRAKRLGINNENLLVYPEVNLEKILQTLEKEKPSLLVLDSVQTIFSERLESSAGSVSQVREVTYRITEFCKEKNVPAFIVGQITKEGSIAGPKVLEHIVDTVLQFEGERFNFYRIVKVIKNRFGSTGEIAVFKMTDKGLEEVPEPSAFFISEKANAPGSVVFPHTEGSKPVLLEVQALVIPALYTTPQRRTQGFDPNRLALILAVLEKEAKIFTRDQDVFVNVAGGMSVKEPAADLAVAMAVVSSKKEKEVPKDFVIFGEVGLSGEIRAVHFGDLRLKEAKRFGFKKALIPKSLEIEIDGMEIYPVSHIQEAIEVLF”, the “soluble on expression in E. coli” value was “soluble”.
In the case of “MGSDKIHHHHHHMIEVQKQIDLDLELDIYKKLLEDNILFFDIETTGFDKEKEKVVLISGGWFLQDKKFVIKQYFAESLDEEVQVLKAFKEDVTKFNSWCSYNGKAFDEPFIKKRMNINNIEFTPPREHIDLYRIIRPYYKQLGMERCNLKSVEKYLGIHRADKIDGGISVELYYNFLDTKDERLRYVIMLHNYEDVLNLPSIFKLTYDIEKNDTLKREGGITKKQLDYLRFLMKKNNIQVTDDLKKISKKSASRIIDSILRGNIDIDKFNAIIKDSY”, the “soluble on expression in E. coli” value is reported as “not soluble”.
With “MAYDGLFTKKMVESLQFLTTGRVHKINQPDNDTILMVVRQNRQNHQLLLSIHPNFSRLQLTTKKYDNPFNPPMFARVFRKHLEGGIIESIKQIGNDRRIEIDIKSKDEIGDTIYRTVILEIMGKHSNLILVDENRKIIEGFKHLTPNTNHYRTVMPGFNYEAPPTQHKINPYDITGAEVLKYIDFNAGNIAKQLLNQFEGFSPLITNEIVSRRQFMTSSTLPEAFDEVMAETKLPPTPIFHKNHETGKEDFYFIKLNQFNDDTVTYDSLNDLLDRFYDARGERERVKQRANDLVRFVQQQLHKYQNKLAKLIEEYEQSKNKDTEQLYGELITANIYRIKQGDKEVTALNYYTNEEVVIPLNPTKSPSANAQYYYKQYNRMKTRERELQHQIQLTKDNIDYFSTIEQQLHHISVHDIDEIRDELAEQGFMKQRKNQTKKKKAQ” the “soluble on expression in E. coli” value was “not soluble”.
For “MKPTDTSEKALEQLIVRHLAGISEHASVPPNAVQSPGAIYALGGYVLGRATDFNRDVALDTVQLLAFLQATQPDAVETLELAHEGIKRTQFLHRLQGEITKRGVVDVLRKGVSHGPVRVDLYRLLPTPGNTNAAEAFGRNIFSITRQVRYSHDSGNELDLVIFVNGLPVLTFELKNSLTKQTVADAIVQYQSTRSPQELLFQPGRCIAHFAVDDAEVYFCTELKGKASWFLPFNQGWNNGAGNPPNPNGLKTDYLWKQVLAKESLANIIESFAQVVEEQETDATTGRKKKKRKPVFPRFHQLRTVRALLRRTRSDGVGKRYLIQHSAGSGKSNTIAWLAHQLVELRSVADPLMPQFDSIIVITDRRALDTQIARTIKGYDHVASIFGHSDNAQELRDYLRRGRKIIVTTVQKFPFILEEIGDLSGRTFALLIDEAHSSQGGKTTARMHEALSGKTDEEAFEEDATQDAVNTEIEKRIQSRRMLSNASYFAFTATPKNRTLELFGEKTVVDDKVEFRSPEELTYTTKQAIQEGFILDVIAHYTTLDSFYQVAKTVENDPDFDKARALKKIRHYVESHDKAIRRKAEIMVDHFVAQVMGAKKIGGKARAMIVCNGIARAIDYWREVSDYLEQIKSPYKAIVAYSGEFEIGGEKKTEADLNDFPSKEIPDRLRQDPYRFLIVANKFVTGFDEPLLHTMYVDKKLAGVQAVQTLSRLNRAHPQKHDTFVLDFADNAEAVKKAFQDYYRATIQTGETDANKLHDLKADLDDKQIYSWPQVEDLVALYLSGADRDKLDPILDHCVEQYQANLDEDNQVEFKGKAKAFVRSYGFLAAILSYGHPAWEKLSIFLNFLIPKLPAPKEEDLSKGVLESIDIDSYRVEARAALKMAMDDTDATVEVAPVGGGGGKGEPDIDKLSNILKTFNDLFGNIDWKDADKIGKVIAEEIPVRVAQDKAYQNAQVNSDRQNAKLEHDKALNRVVLELLSDHTELFKQFSDNPNFKRWLTDMVFDVTYQQNPAHGVEDVRMRALDIVRDRFDAAVVWSQAVDMLLDRLAAGGRNSLGIADLALIEETSGLSVSHVLFPVLNLLSAHDVGILNREFVRVGSTDTPQTMSFDEVRLLAQKDPEGDDWAECLSIRWALQDAQR”, the “soluble on expression in E. coli” value was “not soluble”.
With “MAHHHHHHMHFSLQKKNICTNSTKCVNVHPYLFPPLGMVPKRVRYDVHRGGEQHTDITNLLHTFKRFKMVKTSSYRRKSRSSPNGQGQKAKIGIKRLSAEYVKTGQLLVKQRKIIAFNLERKTRRRNFKYYPGEHVKVTKNTSLVALTNGRVKYTFHTTQNVLIVNVLPEEIDELREEDLYRYRTEHVRSLEENRSLVYLRMKHVVSFPPSKETQFRKPPLRPQFLARYDIEDNPTLREVPVLYHKPK” the “soluble on expression in E. coli” value was “not soluble”.
With “MSQFISLTQYQLIEVQGADAEKYLQGQLTSDVVRLASGATTLTAHCDPKGKMNAIYRLFKVSSEQFFLLVKKDILPSGLDALKKYAVFSKVSFDLRDWQIIGVIGEKCGKITPNFSLEIDEKRSILLNETELPVNFNGDEKIWEVADIQAGLPNLSPQTQNEFIPQALNLQAIEQAISFTKGCYIGQETVARAKYRGANKRAMFIFKVQTQQEAEIGSEIEMQLEANWRKTGTITSAVNLDGVLWLQVVMNNDIDSEQQFRLLNSEILLERVQLPYSITE” the “soluble on expression in E. coli” value was “not soluble”.
With “RALCDEDMKKVFTRLPSSSAIPLAVRRAQDMFVLMFLLRGLPFVDLAYLRKSDLRDNVITYRRRKTGRPLSVTLTPEALELLKKYMNRDSHSPYLFSLLKSGEGTKEAYREYQLALRSFNQQLTLLGEVLGLNDKLSSYTARHTWATTAYYCEIHPGIISEAMGHSSIKVTETYLKPFRNKKIDEANNQIIDFVKHSIAGVVS” the “soluble on expression in E. coli” value was “not soluble”.
For “MIRIGHGFDVHRFGGEGPIIIGGVKIPYEQGLIAHSDGDVALHALSDALLGAIAAGDIGRHFPDTDDKWKGADSRELLKDVYRRVKAQGYVLGNADVTIIAQAPKMAPYIQAMCAAIAEDLETDLGNINVKATTTEKLGFTGRKEGIACEAVVLLRKA”, the “soluble on expression in E. coli” value was “not soluble”.
In the case of “MPSEPGKNMIQHAGLGYRRDLAEDFLSLSENSPICFIEAAPENWLKMGGWARKQFDRVAERLPLALHGLSMSLGGQAPLDTDLIDGIKEMMRRYDCTFFSDHLSYCHDGGHLYDLLPLPFTEEMVHHTARRIREVQDRLGCRIAVENTSYYLHSPLAEMNEVEFLNAVAREADCGIHLDVNNIYVNAVNHGLLSPEAFLENVDAERVCYIHIAGHDVETPELLIDTHGAAVLPTVWDLLELAYAKLPTIPPTLLERDFNFPPFSELEAEVAKIADYQTRAGKECRRAA”, the “soluble on expression in E. coli” value is reported as “not soluble”.
For “MSLLDIIFPPNNNDDDFYGQHFSLIDSIIVKVAQDSNLSQSLRVYQYLYSWRLFGCMVAVVNNNKTLELGDKRGAIEALYEFITRFRIENPTGDVERKVKLKILEIYMIILNLLKSFENNQDQWFLKTNSYKETTTTRRRSIVSLNDLKLEYLEWLKNLDEDVSMFTEGHHHHHH”, the “soluble on expression in E. coli” value was “not soluble”.
With “MGSDKIHHHHHHMSTINNRNPKISVLMSIYKENSLYVRQAIDSILNQSFGDFEFLIYNDNPEDFILDKLVLEIARKDSRIQYQRNEKNIGLAATLNRQICVAKGEYLARMDADDISLPDRFIMQVEYLDRNTNIAVLGTWAKIIDKEGQVISSASLKTGYNNIIACAMCDSPLFHPSVMIRKEFLQLNGLSYNEDFSCAQDYELWSRILFEKGGYIDNLSVYLIYYRVTTSQISSIKQQQQIYNSLLVRRNNISFFLNKYSIDLPRKITKTDVCNLINRISEFKEESSTHKIYVNILFMYCMSLPRLEKIILLIKYVCVFYSEFSLKQMCLLVASSFFMRKFPLCSLNIMLH” the “soluble on expression in E. coli” value was “not soluble”.
With “AFMQDRLKIMRQQNPAASLQHQWVDYEQISSHLKRAVIAAEDARFLQHQGFDYKAIETAWKKNLKQRKWAAGGSTISQQLAKNLFLSTEKTVWRKSRETLITLMLEEFLTKRRILEIYLNIIEWGDGIFGIEAAARHYFGISAASLTPAQAAWLASIIPNPRFYDTRRTLPKLLNKSRIILSRLPAAKIP” the “soluble on expression in E. coli” value was “not soluble”.
With “MAHHHHHHMQKIQNAVRRRSRFFKWDVKWYSSKVKVEKKAGERHNDRHDSHDSHDSHKDIPQDSRPDTRVGQERKYNLWRWGCSGEGIFSSVKVGEKNKMPEKVPNFENAKIEKLSAGCDHAAFIVDGRIFTYGLNDKGQLGRSIEEENDQNKSYTLTPREVKTEGNVKFKDVCCGYKHTVAVDVNNNLYSWGWGGNFFKGANGLGHGNKQNLSTPKKVESFKSDDSEFVNICCGDQHSLVLTKNGKVYGCGRGEFGRLGKGNHGDQLFFEEIDFFISNNITVKGISCGHSFSAALSTDGEVYVWGRNDYGQLGIENSIGDLYSHEVYPNKVKYFDMENIKIKFIACGDNHMIACSENNVIFFWGSRAWLEPKAITLSPLYQNSVIKKNIDKIEAGGNTYYYSMLLSDNKLYSWGKYNSSCLALGDKKNHNEPTLVDSKLFNDEIVCDISCGRGRVLAKTLAAD” the “soluble on expression in E. coli” value was “not soluble”.
For “MNEKVFRDPVHNYIHVNNQIIYDLINTKEFQRLRRIKQLGTSSYTFHGGEHS”, the “soluble on expression in E. coli” value was “soluble”.
In the case of “MAISRELVDPNSSPREIEVSEPREVGITELVLRDAHQSLMATRMAMEDMVGACADIDAAGYWSVECWGGTTYDSCIRFLNEDPWERLRTFRKLMPNSRLQMLLRGQNLLGYRHYNDEVVDRFVDKSAENGMDVFRVFDAMNDPRNMAHAMAAVKKAGKHAQGTICYTISPVHTVEGYVKLAGQLLDMGADSIALKDMAALLKPQPAYDIIKAIKDTYGQKTQINLHCHSTTGVTEVSLMKAIEAGVDVVDTAISSMSLGPGHNPTESVAEMLEGTGYTTNLDYDRLHKIRDHFKAIRPKYKKFESKTLVDTSIFKSQIPGGMLSNMESQLRAQGAEDKMDEVMAEVPRVRKAAGFPPLVTPSSQIVGTQAVFNVMMGEYKRMTGEFADIMLGYYGASPADRDPKVVKLAEEQSGKKPITQRPADLLPPEWEKQSKEAATLKGFNGTDEDVLTYALFPQVAPVFFEHRAEGPHSVALTDAQLKAEAEGDEKSLAVAGPVTYNVNVGGTVREVTVQQATRASQPELAPEDPEDLEHHHHHH”, the “soluble on expression in E. coli” value is reported as “soluble”.
With “MGSSHHHHHHSSGLVPRGSHMEEEMMILGVDGGSTKTLAIVFDERSERIMGVGISGPSNFTNAPRETAESNISDAVRKACSEAGTDLDGIGIRVFGLAGIGDSREATELGKDIVRSIVGHADVYSDGLGAYKFANLNDDGVVFAPGTGSVGFIKNGSDPERFGGWGWFIGDEASASWMAKQAILFAEREHDGIAETGFLDVVRRYFGMDLYETVYAISKEKIAKRVVAALAPQVSAMARSGNRYAISIFEESSSYIADLLNAKSRIFGRSGKYSVLGGTMLAGDFYRDMIRKKSSVDVSIYYGYQVAIGDVLIGIEKKGSISVDLRNKMIDQLNSILENKKEDIKKFLFLDSVPTS” the “soluble on expression in E. coli” value was “soluble”.
